Literature values in paper PMC5457079.

Biological target: insulin (Homo sapiens) (UniProt P01308)

Question: For insulin (from UniProt P01308), which Kd is on record?
Answer: 10 µM
